# Ends that are not written are not given here.
# T1: corticotropin releasing factor 2 receptor
# T1 sequence (Q13324 whole entry, species assumed, looked up): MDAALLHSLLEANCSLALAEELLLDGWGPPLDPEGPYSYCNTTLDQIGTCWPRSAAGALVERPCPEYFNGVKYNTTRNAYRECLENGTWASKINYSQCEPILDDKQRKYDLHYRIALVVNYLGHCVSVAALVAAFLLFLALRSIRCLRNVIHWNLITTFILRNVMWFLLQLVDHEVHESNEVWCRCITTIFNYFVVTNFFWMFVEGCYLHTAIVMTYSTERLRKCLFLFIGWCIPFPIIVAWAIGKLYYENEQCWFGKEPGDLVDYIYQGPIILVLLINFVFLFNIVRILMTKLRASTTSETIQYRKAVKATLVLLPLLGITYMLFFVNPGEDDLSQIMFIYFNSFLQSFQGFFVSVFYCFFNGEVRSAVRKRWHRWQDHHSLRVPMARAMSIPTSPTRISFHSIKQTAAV
# Molecular target: T1, corticotropin releasing factor 2 …
# Assay: cell-based or functional assay
# Throughout, for CRF1R Emax: reference of the scale not given here.
# Throughout, for CRF2R Emax: reference of the scale not given here.
CRF2R EC50,CRF2R Emax,Binder
7.79 nM,–,IVLSLDVPIGLLQILLEQAKARAAREQATTNARILARV-NH2 [SEQ ID NO 127]
100 nM,9.85%,SQEPPISLDLPIQLLREVLEMTKADQLAQQAHSNRKLLDIA-NH2 [SEQ ID NO 100]
4.47 nM,99%,IVLSLDVPIGLLQILLEQEKQEAAREQATTNARILARV-NH2 [SEQ ID NO 125]
2.85 nM,98%,IVLSLDVPIGLLQILLEQTRARAAREQATTNARILARV-NH2 [SEQ ID NO 128]
3.49 nM,94%,IVLSLDVPIGLLQILLEQAKQEAAREQATTNARILARV-NH2 [SEQ ID NO 124]
100 nM,5.5%,SQEPPISLDLPTGLLREVLEMTKADQLAQQAHSNRKLLDIA-NH2 [SEQ ID NO 98]
100 nM,6.1%,SQEPPISLDLPTYLLREVLEMTKADQLAQQAHSNRKLLDIA-NH2 [SEQ ID NO 106]
13 nM,91%,IVLSLDVPIGLLQILLEQTRADAAREQATTNARILARV-NH2 [SEQ ID NO 126]
100 nM,7.6%,SQEPPISLDLPFELLREVLEMTKADQLAQQAHSNRKLLDIA-NH2 [SEQ ID NO 97]
13.6 nM,98%,IVLSLDVPIGLLQILLEQEKQRAAREQATTNARILARV-NH2 [SEQ ID NO 115]
12.3 nM,100%,IVLSLDVPIGLLQILLEQAKAEAAREQATTNARILARV-NH2 [SEQ ID NO 112]
10.9 nM,99%,IVLSLDVPIGLLQILLEQERQRAAREQATTNARILARV-NH2 [SEQ ID NO 111]
100 nM,9.15%,SQEPPISLDLPTQLLREVLEMTKADQLAQQAHSNRKLLDIA-NH2 [SEQ ID NO 105]
3.31 nM,97%,IVLSLDVPIGLLQILLEQARAEAAREQATTNARILARV-NH2 [SEQ ID NO 122]
3.83 nM,–,IVLSLDVPIGLLQILLEQTKARAAREQATTNARILARV-NH2 [SEQ ID NO 129]
100 nM,13.5%,SQEPPISLDLPLHLLREVLEMTKADQLAQQAHSNRKLLDIA-NH2 [SEQ ID NO 102]
14.6 nM,100%,IVLSLDVPIGLLQILLEQERQEAAREQATTNARILARV-NH2 [SEQ ID NO 118]

# The remaining lines, values behind:
Binder,CRF2R EC50,CRF2R Emax
IVLSLDVPIGLLQILLEQARARAAREQATTQARILARV-NH2 [SEQ ID NO 9],100 nM,34%
IVLSLDVPIGLLQILLEQARADAAREQATTNARILARV-NH2 [SEQ ID NO 130],8.57 nM,92%
IVLSLDVPIGLLQILLEQAKARAAREQATTNARILARV-NH2 [SEQ ID NO 109],11.8 nM,–
SQEPPISLDLPLYLLREVLEMTKADQLAQQAHSNRKLLDIA-NH2 [SEQ ID NO 101],100 nM,6.95%
IVLSLDVPIGLLQILLEQTKADAAREQATTNARILARV-NH2 [SEQ ID NO 108],79 nM,97%
IVLSLDVPIGLLQILLEQARQRAAREQATTNARILARV-NH2 [SEQ ID NO 114],3.42 nM,100%
IVLSLDVPIGLLQILLEQERARAAREQATTNARILARV-NH2 [SEQ ID NO 119],3.57 nM,95%
SQEPPISLDLPFHLLREVLEMTKADQLAQQAHSNRKLLDIA-NH2 [SEQ ID NO 104],100 nM,4.5%
IVLSLDVPIGLLQILLEQTKARAAREQATTNARILARV-NH2 [SEQ ID NO 117],9.41 nM,–
ZGPPISIDLPFQLLRKMIEIEKQEKEKQQATNNRLLLATV (C-terminal amide) [SEQ ID NO 12],9.72 nM,91%
ZGPPISIDLPFQLLRKMIEIEKQEKEKQQATTNRLLLDTI (C-terminal amide) [SEQ ID NO 13],3.88 nM,79%
SQEPPISLDLPTHLLREVLEMTKADQLAQQAHSNRKLLDIA-NH2 [SEQ ID NO 99],100 nM,4.35%
IVLSLDVPIGLLQILLEQERAEAAREQATTNARILARV-NH2 [SEQ ID NO 113],11.3 nM,98%
IVLSLDVPIGLLQILLEQEKEKKRKETNARILARV-NH2 [SEQ ID NO 132],7.53 nM,88%
IVLSLDVPIGLLQILLEQAKADAAREQATTNARILARV-NH2 [SEQ ID NO 131],5.25 nM,91%
SQEPPISLDLPFGLLREVLEMTKADQLAQQAHSNRKLLDIA-NH2 [SEQ ID NO 103],100 nM,4.85%
IVLSLDVPIGLLQILLEQARQEAAREQATTNARILARV-NH2 [SEQ ID NO 123],3.49 nM,93.8%
IVLSLEVPIGLLQILLEQARARAAREQATTNARILARV-NH2 [SEQ ID NO 120],69.9 nM,100%
IVLSLDVPIGLLQILLEQTKANAAREQATTVARILARV-NH2 [SEQ ID NO 116],100 nM,26.4%
IVLSLDVPIGLLQILLEQAKQRAAREQATTNARILARV-NH2 [SEQ ID NO 110],11 nM,100%

# Molecular target: corticotropin releasing factor 1 receptor
# Assay: cell-based or functional assay
CRF1R EC50,CRF1R Emax,Binder
> 100 nM,–,IVLSLDVPIGLLQILLEQAKARAAREQATTNARILARV-NH2 [SEQ ID NO 127]
100 nM,6.25%,SQEPPISLDLPIQLLREVLEMTKADQLAQQAHSNRKLLDIA-NH2 [SEQ ID NO 100]
> 100 nM,9%,IVLSLDVPIGLLQILLEQEKQEAAREQATTNARILARV-NH2 [SEQ ID NO 125]
> 100 nM,8%,IVLSLDVPIGLLQILLEQTRARAAREQATTNARILARV-NH2 [SEQ ID NO 128]
> 100 nM,6%,IVLSLDVPIGLLQILLEQAKQEAAREQATTNARILARV-NH2 [SEQ ID NO 124]
100 nM,4%,SQEPPISLDLPTGLLREVLEMTKADQLAQQAHSNRKLLDIA-NH2 [SEQ ID NO 98]
100 nM,4.8%,SQEPPISLDLPTYLLREVLEMTKADQLAQQAHSNRKLLDIA-NH2 [SEQ ID NO 106]
> 100 nM,7%,IVLSLDVPIGLLQILLEQTRADAAREQATTNARILARV-NH2 [SEQ ID NO 126]
100 nM,4.25%,SQEPPISLDLPFELLREVLEMTKADQLAQQAHSNRKLLDIA-NH2 [SEQ ID NO 97]
> 100 nM,7%,IVLSLDVPIGLLQILLEQEKQRAAREQATTNARILARV-NH2 [SEQ ID NO 115]
> 100 nM,10%,IVLSLDVPIGLLQILLEQAKAEAAREQATTNARILARV-NH2 [SEQ ID NO 112]
> 100 nM,9%,IVLSLDVPIGLLQILLEQERQRAAREQATTNARILARV-NH2 [SEQ ID NO 111]
100 nM,5.2%,SQEPPISLDLPTQLLREVLEMTKADQLAQQAHSNRKLLDIA-NH2 [SEQ ID NO 105]
1000 nM,10.7%,IVLSLDVPIGLLQILLEQARAEAAREQATTNARILARV-NH2 [SEQ ID NO 122]
> 100 nM,–,IVLSLDVPIGLLQILLEQTKARAAREQATTNARILARV-NH2 [SEQ ID NO 129]
100 nM,7.8%,SQEPPISLDLPLHLLREVLEMTKADQLAQQAHSNRKLLDIA-NH2 [SEQ ID NO 102]
> 100 nM,5%,IVLSLDVPIGLLQILLEQERQEAAREQATTNARILARV-NH2 [SEQ ID NO 118]

# More lines, now with the values behind:
Binder,CRF1R EC50,CRF1R Emax
IVLSLDVPIGLLQILLEQARARAAREQATTQARILARV-NH2 [SEQ ID NO 9],100 nM,10%
IVLSLDVPIGLLQILLEQARADAAREQATTNARILARV-NH2 [SEQ ID NO 130],> 100 nM,9%
IVLSLDVPIGLLQILLEQAKARAAREQATTNARILARV-NH2 [SEQ ID NO 109],100 nM,–
SQEPPISLDLPLYLLREVLEMTKADQLAQQAHSNRKLLDIA-NH2 [SEQ ID NO 101],100 nM,7.35%
IVLSLDVPIGLLQILLEQTKADAAREQATTNARILARV-NH2 [SEQ ID NO 108],> 100 nM,3%
IVLSLDVPIGLLQILLEQARQRAAREQATTNARILARV-NH2 [SEQ ID NO 114],> 100 nM,6%
IVLSLDVPIGLLQILLEQERARAAREQATTNARILARV-NH2 [SEQ ID NO 119],> 100 nM,3%
SQEPPISLDLPFHLLREVLEMTKADQLAQQAHSNRKLLDIA-NH2 [SEQ ID NO 104],100 nM,11.1%
IVLSLDVPIGLLQILLEQTKARAAREQATTNARILARV-NH2 [SEQ ID NO 117],100 nM,–
ZGPPISIDLPFQLLRKMIEIEKQEKEKQQATNNRLLLATV (C-terminal amide) [SEQ ID NO 12],928 nM,73%
ZGPPISIDLPFQLLRKMIEIEKQEKEKQQATTNRLLLDTI (C-terminal amide) [SEQ ID NO 13],97.7 nM,69%
SQEPPISLDLPTHLLREVLEMTKADQLAQQAHSNRKLLDIA-NH2 [SEQ ID NO 99],100 nM,4.35%
IVLSLDVPIGLLQILLEQERAEAAREQATTNARILARV-NH2 [SEQ ID NO 113],> 100 nM,4%
IVLSLDVPIGLLQILLEQEKEKKRKETNARILARV-NH2 [SEQ ID NO 132],> 100 nM,8%
IVLSLDVPIGLLQILLEQAKADAAREQATTNARILARV-NH2 [SEQ ID NO 131],> 100 nM,8%
SQEPPISLDLPFGLLREVLEMTKADQLAQQAHSNRKLLDIA-NH2 [SEQ ID NO 103],100 nM,5.75%
IVLSLDVPIGLLQILLEQARQEAAREQATTNARILARV-NH2 [SEQ ID NO 123],> 1000 nM,9.6%
IVLSLEVPIGLLQILLEQARARAAREQATTNARILARV-NH2 [SEQ ID NO 120],100 nM,7%
IVLSLDVPIGLLQILLEQTKANAAREQATTVARILARV-NH2 [SEQ ID NO 116],100 nM,4.8%
IVLSLDVPIGLLQILLEQAKQRAAREQATTNARILARV-NH2 [SEQ ID NO 110],> 100 nM,9%
